We go through eleven molecules from patent publication US20150132813A1, “BIOSYNTHETIC PATHWAYS, RECOMBINANT CELLS, AND METHODS” (REGENTS OF THE UNIVERSITY OF MINNESOTA, priority 2012, published 2015).

Data set [1] addresses indolepyruvate decarboxylase (IPDC) (Salmonella enterica, UniProt H9L492). Kind of data set: Coupled enzymatic assay of IPDC (NADH absorbance at 340 nm). Conditions: substrate of IPDC, pH 6.8.
Data set [2] concerns the target T1, 3-hydroxypropionaldehyde dehydrogenase AldH (Escherichia coli, UniProt P23883).
T1 sequence (P23883 1-495): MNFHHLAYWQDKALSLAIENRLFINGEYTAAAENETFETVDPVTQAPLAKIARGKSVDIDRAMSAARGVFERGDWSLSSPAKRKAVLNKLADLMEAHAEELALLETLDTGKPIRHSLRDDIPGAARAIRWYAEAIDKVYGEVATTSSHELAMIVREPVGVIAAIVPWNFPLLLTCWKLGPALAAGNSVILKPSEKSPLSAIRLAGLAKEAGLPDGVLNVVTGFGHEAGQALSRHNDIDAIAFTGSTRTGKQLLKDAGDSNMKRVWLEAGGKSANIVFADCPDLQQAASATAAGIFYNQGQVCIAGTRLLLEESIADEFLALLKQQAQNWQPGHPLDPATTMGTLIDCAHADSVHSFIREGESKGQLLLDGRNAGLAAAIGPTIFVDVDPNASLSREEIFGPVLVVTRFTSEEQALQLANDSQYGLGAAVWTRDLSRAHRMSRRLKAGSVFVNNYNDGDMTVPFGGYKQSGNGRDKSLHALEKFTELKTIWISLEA
Description: Enzymatic assay of AldH (NADH absorbance at 340 nm). Conditions: substrate of AldH; pH 8.0, 0.5 mM NAD+.

Data set [3] relates to α-ketoglutaric semialdehyde dehydrogenase KDHba. Conditions: substrate of KDHba; from Xiong et al., Sci Rep 2012; cited from earlier work.
Data set [4] relates to PA1 strain. Kind of data set: Shake flask fermentation for 2-methylbutyric acid production (PA1 strain with pIPA1, pIPA2 and a DC-DH plasmid), HPLC. The following applies: aldehyde dehydrogenase varied, wild-type KIVD as 2-ketoacid decarboxylase; 40 g/L glucose, 48 hours, 30° C.
The test system of data set [5] is PA1 strain. Kind of data set: Shake flask fermentation for pentanoic acid production (PA1 strain with pIPA1, pIPA3 and a DC-DH plasmid), HPLC. The following applies: aldehyde dehydrogenase varied, wild-type KIVD as 2-ketoacid decarboxylase; 40 g/L glucose, 48 hours, 30° C.
For a further data set, the system named is CCC(C)C(=O)C(=O)O. Description: purified protein, by the assay type. The following applies: other: substrate of IPDC, coupled assay, pH 6.8.
The test system of another data set is CCCCC(=O)C(=O)O. Kind of data set: purified protein, by the assay type. Conditions: other: substrate of IPDC, coupled assay, pH 6.8.
Substrate in data set [6]: CCC(C)C=O
Kind of data set: purified protein, by the assay type. The following applies: other: substrate of AldH, pH 8.0, 0.5 mM NAD+, 30.0 °C.

indolepyruvate decarboxylase (IPDC), sequence (H9L492 1-550): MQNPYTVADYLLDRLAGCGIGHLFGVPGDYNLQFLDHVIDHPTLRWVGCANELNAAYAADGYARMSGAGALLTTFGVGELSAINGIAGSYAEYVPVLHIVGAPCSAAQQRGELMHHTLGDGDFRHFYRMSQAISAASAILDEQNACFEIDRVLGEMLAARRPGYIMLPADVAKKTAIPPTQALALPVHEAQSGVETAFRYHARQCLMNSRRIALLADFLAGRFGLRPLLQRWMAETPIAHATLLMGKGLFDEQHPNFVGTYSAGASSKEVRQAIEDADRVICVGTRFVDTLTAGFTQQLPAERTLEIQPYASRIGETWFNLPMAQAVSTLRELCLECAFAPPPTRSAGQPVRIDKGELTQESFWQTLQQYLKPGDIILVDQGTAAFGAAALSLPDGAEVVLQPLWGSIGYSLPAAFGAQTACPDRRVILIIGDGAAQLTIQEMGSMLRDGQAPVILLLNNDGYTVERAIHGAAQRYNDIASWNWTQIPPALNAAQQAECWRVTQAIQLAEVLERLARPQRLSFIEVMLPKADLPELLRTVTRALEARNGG

What is called kcat is the number of substrate molecules converted per active site and unit of time at saturation. As to `CCC(C)C(=O)C(=O)O` (stereo not drawn) [2-Keto-3-methylvalerate, 2-keto-3-methylvalerate], in data set [1], the turnover number (kcat) was 4.13 s⁻¹.
On the same count and under the same terms, the figure for `CCCCC(=O)C(=O)O` [2-Ketocaproate, 2-ketocaproate] is 1.89 s⁻¹.
On to `CCC(C)C=O` (stereo not drawn) [2-Methyl butyraldehyde, 2-methyl butyraldehyde], for which, in data set [2], the kcat stood at 3.55 s⁻¹.
As a reminder, the Km is the concentration of substrate that gives half-maximal velocity. For the molecule `CC(C)C=O` [isobutyraldehyde], the Michaelis constant (Km) in data set [3] was 34.5 mM.
Turning to `CC(C)CC=O` [isovaleraldehyde], the Km in data set [3] is 7.62 mM.
In turn, “YdcW: γ-aminobutyraldehyde dehydrogenase YdcW from E. coli” came in with a 2-methylbutyric acid titer with PA1 strain [4] of 0.23 g/L. This molecule also showed a pentanoic acid titer in the data set on PA1 strain [5] of 0.22 g/L.
A word on the kcat/Km: it is the second-order rate constant that governs catalysis at low substrate concentration. In the case of “indolepyruvate decarboxylase (IPDC) (Salmonella enterica subsp. enterica serovar Typhimurium str. LT2)”, in the data set on CCC(C)C(=O)C(=O)O, the Km was 0.85 mM, the kcat came to 4.13 ± 0.21 s⁻¹ and the catalytic efficiency (kcat/Km) was found to be 4860 M⁻¹ s⁻¹. Moreover, in the data set with CCCCC(=O)C(=O)O, the Km was found to be 0.63 mM, the kcat worked out at 1.89 ± 0.06 s⁻¹ and the kcat/Km was 3000 M⁻¹ s⁻¹.

B1: Al dB: acetaldehyde dehydrogenase AldB from E. coli (protein, UniProt P37685 1-512, looked up)
Aldehyde dehydrogenase B: MTNNPPSAQIKPGEYGFPLKLKARYDNFIGGEWVAPADGEYYQNLTPVTGQLLCEVASSGKRDIDLALDAAHKVKDKWAHTSVQDRAAILFKIADRMEQNLELLATAETWDNGKPIRETSAADVPLAIDHFRYFASCIRAQEGGISEVDSETVAYHFHEPLGVVGQIIPWNFPLLMASWKMAPALAAGNCVVLKPARLTPLSVLLLMEIVGDLLPPGVVNVVNGAGGVIGEYLATSKRIAKVAFTGSTEVGQQIMQYATQNIIPVTLELGGKSPNIFFADVMDEEDAFFDKALEGFALFAFNQGEVCTCPSRALVQESIYERFMERAIRRVESIRSGNPLDSVTQMGAQVSHGQLETILNYIDIGKKEGADVLTGGRRKLLEGELKDGYYLEPTILFGQNNMRVFQEEIFGPVLAVTTFKTMEEALELANDTQYGLGAGVWSRNGNLAYKMGRGIQAGRVWTNCYHAYPAHAAFGGYKQSGIGRETHKMMLEHYQQTKCLLVSYSDKPLGLF
As for B1, the 2-methylbutyric acid titer in the data set on PA1 strain [4] was found to be 2.31 g/L. This molecule also had a pentanoic acid titer in the data set with PA1 strain [5] of 0.42 g/L.

B2: GabD: succinate semialdehyde dehydrogenase GabD from E. coli (protein, UniProt P25526 1-482, looked up)
Succinate-semialdehyde …: MKLNDSNLFRQQALINGEWLDANNGEAIDVTNPANGDKLGSVPKMGADETRAAIDAANRALPAWRALTAKERATILRNWFNLMMEHQDDLARLMTLEQGKPLAEAKGEISYAASFIEWFAEEGKRIYGDTIPGHQADKRLIVIKQPIGVTAAITPWNFPAAMITRKAGPALAAGCTMVLKPASQTPFSALALAELAIRAGVPAGVFNVVTGSAGAVGNELTSNPLVRKLSFTGSTEIGRQLMEQCAKDIKKVSLELGGNAPFIVFDDADLDKAVEGALASKFRNAGQTCVCANRLYVQDGVYDRFAEKLQQAVSKLHIGDGLDNGVTIGPLIDEKAVAKVEEHIADALEKGARVVCGGKAHERGGNFFQPTILVDVPANAKVSKEETFGPLAPLFRFKDEADVIAQANDTEFGLAAYFYARDLSRVFRVGEALEYGIVGINTGIISNEVAPFGGIKASGLGREGSKYGIEDYLEIKYMCIGL
In turn, B2 came in with a 2-methylbutyric acid titer in the data set on PA1 strain [4] of 0.14 g/L. For the same molecule, the pentanoic acid titer with PA1 strain [5] turned out to be 0.54 g/L.

B3: PadA: phenylacetaldehyde dehydrogenase PadA from E. coli (protein, UniProt P80668 1-499, looked up)
Phenylacetaldehyde …: MTEPHVAVLSQVQQFLDRQHGLYIDGRPGPAQSEKRLAIFDPATGQEIASTADANEADVDNAVMSAWRAFVSRRWAGRLPAERERILLRFADLVEQHSEELAQLETLEQGKSIAISRAFEVGCTLNWMRYTAGLTTKIAGKTLDLSIPLPQGARYQAWTRKEPVGVVAGIVPWNFPLMIGMWKVMPALAAGCSIVIKPSETTPLTMLRVAELASEAGIPDGVFNVVTGSGAVCGAALTSHPHVAKISFTGSTATGKGIARTAADHLTRVTLELGGKNPAIVLKDADPQWVIEGLMTGSFLNQGQVCAASSRIYIEAPLFDTLVSGFEQAVKSLQVGPGMSPVAQINPLVSRAHCDKVCSFLDDAQAQQAELIRGSNGPAGEGYYVAPTLVVNPDAKLRLTREEVFGPVVNLVRVADGEEALQLANDTEYGLTASVWTQNLSQALEYSDRLQAGTVWVNSHTLIDANLPFGGMKQSGTGRDFGPDWLDGWCETKSVCVRY
With B3, in the data set with PA1 strain [4], the 2-methylbutyric acid titer is recorded as 2.26 g/L. For the same molecule, the pentanoic acid titer with PA1 strain [5] came to 2.12 g/L.

B4: 3-hydroxypropionaldehyde dehydrogenase AldH (Escherichia coli K-12) (protein)
chain: MNFHHLAYWQDKALSLAIENRLFINGEYTAAAENETFETVDPVTQAPLAKIARGKSVDIDRAMSAARGVFERGDWSLSSPAKRKAVLNKLADLMEAHAEELALLETLDTGKPIRHSLRDDIPGAARAIRWYAEAIDKVYGEVATTSSHELAMIVREPVGVIAAIVPWNFPLLLTCWKLGPALAAGNSVILKPSEKSPLSAIRLAGLAKEAGLPDGVLNVVTGFGHEAGQALSRHNDIDAIAFTGSTRTGKQLLKDAGDSNMKRVWLEAGGKSANIVFADCPDLQQAASATAAGIFYNQGQVCIAGTRLLLEESIADEFLALLKQQAQNWQPGHPLDPATTMGTLIDCAHADSVHSFIREGESKGQLLLDGRNAGLAAAIGPTIFVDVDPNASLSREEIFGPVLVVTRFTSEEQALQLANDSQYGLGAAVWTRDLSRAHRMSRRLKAGSVFVNNYNDGDMTVPFGGYKQSGNGRDKSLHALEKFTELKTIWISLEA
As for B4, the 2-methylbutyric acid titer with PA1 strain [4] was found to be 2.51 g/L. The same molecule displayed a pentanoic acid titer with PA1 strain [5] of 1.76 g/L. Further, in data set [6], the Michaelis constant (Km) amounted to 1.89 mM, the kcat came out at 3.55 ± 0.17 s⁻¹ and the kcat/Km came to 1880 M⁻¹ s⁻¹.
